This passage reports Kd results from publication PMC2566858 (Nucleic Acids Research, 2008).

Common to all, as to assay: fluorescence anisotropy
In data set [1] the target is T1, rGyr_hel (reverse gyrase helicase-like domain) (Thermotoga maritima, UniProt O51934 59-541).
T1 sequence: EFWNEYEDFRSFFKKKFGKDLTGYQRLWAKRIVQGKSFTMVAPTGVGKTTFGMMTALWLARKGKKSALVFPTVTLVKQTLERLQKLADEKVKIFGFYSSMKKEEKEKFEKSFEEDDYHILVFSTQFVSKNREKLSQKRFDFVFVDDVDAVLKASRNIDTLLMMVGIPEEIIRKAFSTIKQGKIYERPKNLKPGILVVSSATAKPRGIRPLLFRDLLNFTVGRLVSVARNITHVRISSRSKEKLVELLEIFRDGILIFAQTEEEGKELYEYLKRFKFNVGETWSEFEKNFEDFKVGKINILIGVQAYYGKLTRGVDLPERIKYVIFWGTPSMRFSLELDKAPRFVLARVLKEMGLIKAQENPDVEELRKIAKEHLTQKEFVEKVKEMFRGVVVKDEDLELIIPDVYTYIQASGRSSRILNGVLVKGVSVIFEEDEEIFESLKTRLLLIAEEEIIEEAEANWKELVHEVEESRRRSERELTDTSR

The target in data set [2] is T2, rGyr_fl Y851F (full-length reverse gyrase) (Thermotoga maritima, UniProt O51934 1-1104, Y851F).
T2 sequence: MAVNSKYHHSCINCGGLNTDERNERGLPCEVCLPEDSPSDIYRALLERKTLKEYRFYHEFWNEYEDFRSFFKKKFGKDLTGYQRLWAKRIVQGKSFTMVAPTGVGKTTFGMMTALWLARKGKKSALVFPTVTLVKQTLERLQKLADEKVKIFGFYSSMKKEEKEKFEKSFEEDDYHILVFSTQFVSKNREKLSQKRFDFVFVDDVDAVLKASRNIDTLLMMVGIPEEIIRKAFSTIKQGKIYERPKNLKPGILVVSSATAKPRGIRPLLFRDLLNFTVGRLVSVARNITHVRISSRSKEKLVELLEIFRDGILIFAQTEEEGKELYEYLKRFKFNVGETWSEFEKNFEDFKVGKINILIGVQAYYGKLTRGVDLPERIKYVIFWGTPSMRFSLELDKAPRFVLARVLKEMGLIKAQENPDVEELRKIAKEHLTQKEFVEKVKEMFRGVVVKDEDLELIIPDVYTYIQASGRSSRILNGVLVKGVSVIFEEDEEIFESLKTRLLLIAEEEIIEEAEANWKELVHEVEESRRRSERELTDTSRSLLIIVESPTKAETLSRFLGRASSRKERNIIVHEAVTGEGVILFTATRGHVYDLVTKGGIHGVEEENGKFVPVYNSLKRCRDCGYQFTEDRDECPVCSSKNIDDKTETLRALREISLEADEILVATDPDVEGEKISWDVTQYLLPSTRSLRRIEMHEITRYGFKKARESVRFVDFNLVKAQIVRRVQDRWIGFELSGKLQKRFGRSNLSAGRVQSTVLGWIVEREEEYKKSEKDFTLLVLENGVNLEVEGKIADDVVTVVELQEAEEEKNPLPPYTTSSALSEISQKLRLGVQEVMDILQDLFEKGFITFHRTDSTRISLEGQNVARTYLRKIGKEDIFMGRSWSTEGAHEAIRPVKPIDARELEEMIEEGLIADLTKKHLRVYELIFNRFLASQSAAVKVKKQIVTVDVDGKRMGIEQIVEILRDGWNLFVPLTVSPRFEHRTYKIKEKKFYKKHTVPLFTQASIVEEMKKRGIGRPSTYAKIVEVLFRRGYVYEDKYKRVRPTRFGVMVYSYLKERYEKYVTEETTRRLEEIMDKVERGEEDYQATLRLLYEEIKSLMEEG

Data set [3] deals with T1, rGyr_hel (reverse gyrase helicase-like …). The source holds these as a separate data set.
For data set [4] the target is unchanged. This is another data set of the same source.

Read-outs that look alike come from different tables or passages of the source.

B1: 60-base ssDNA (ssDNA)
DNA: AAGCCAAGCTTCTAGAGTCAGCCCGTGATATTCATTACTTCTTATCCTAGGATCCCCGTT
Turning to B1, the Kd (as a rule, the concentration at which binding is half-saturated) stood at 330 ± 10 nM in data set [1], 39 ± 1 nM in data set [2], 460 ± 30 nM in data set [3] and 200 ± 30 nM in data set [4].

B2: 60 bp dsDNA (dsDNA)
DNA 1: AAGCCAAGCTTCTAGAGTCAGCCCGTGATATTCATTACTTCTTATCCTAGGATCCCCGTT
DNA 2: AACGGGGATCCTAGGATAAGAAGTAATGAATATCACGGGCTGACTCTAGAAGCTTGGCTT
Take B2: the Kd in data set [4] amounted to 3900 ± 600 nM.
